For assay [1], the target named is citrate synthase (UniProt P00889).
Another assay deals with malate dehydrogenase (UniProt P00346).
For assay [2], the target named is luciferase [luciferase: P08659].
In assay [3] the target is citrate synthase (UniProt P00889). The source holds these as a separate data set.
The target of assay [4] is Synechococcus sp. phage S-ShM2 18 kDa small heat shock protein (HspSP-ShM2) (cyanophage S-ShM2 (Synechococcus sp. phage)). Briefly: SEC; Superdex 200 Increase 10/300 GL, TEN buffer (50 mM Tris-HCl pH 8.0, 0.1 mM EDTA, 150 mM NaCl) without detergent, room temperature, 0.5 ml/min; HspSP-ShM2 alone at 30 and 60 uM (the ~200 kDa species only at 60 uM); masses from a standard curve. (In general: SEC sorts molecules by how far they enter the pores of the column.)

We go through one substance from publication PMC5028025.

Chain of UniProt P00889 (P00889 28-464): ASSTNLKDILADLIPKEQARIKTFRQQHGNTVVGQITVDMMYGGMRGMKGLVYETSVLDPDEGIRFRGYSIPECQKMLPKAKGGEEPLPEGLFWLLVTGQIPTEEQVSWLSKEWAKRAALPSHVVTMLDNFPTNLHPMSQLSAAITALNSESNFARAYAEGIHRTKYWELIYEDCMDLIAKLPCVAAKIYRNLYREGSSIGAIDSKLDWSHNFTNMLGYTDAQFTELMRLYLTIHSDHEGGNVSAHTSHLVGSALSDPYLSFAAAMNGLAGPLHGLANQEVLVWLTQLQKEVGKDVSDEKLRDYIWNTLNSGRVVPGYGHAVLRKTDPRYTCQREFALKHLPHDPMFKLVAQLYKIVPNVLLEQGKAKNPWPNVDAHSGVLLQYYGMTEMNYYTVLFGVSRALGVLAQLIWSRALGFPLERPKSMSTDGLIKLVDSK
Chain of UniProt P00346 (P00346 25-338): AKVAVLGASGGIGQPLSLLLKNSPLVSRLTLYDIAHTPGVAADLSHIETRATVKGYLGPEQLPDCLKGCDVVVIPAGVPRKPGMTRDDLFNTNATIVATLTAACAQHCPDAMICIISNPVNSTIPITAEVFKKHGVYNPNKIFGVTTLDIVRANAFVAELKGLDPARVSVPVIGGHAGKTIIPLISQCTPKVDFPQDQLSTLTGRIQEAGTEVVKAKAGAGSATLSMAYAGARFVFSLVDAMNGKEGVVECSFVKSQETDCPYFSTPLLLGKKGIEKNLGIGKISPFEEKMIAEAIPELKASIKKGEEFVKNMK

For orientation: stoichiometry N means a count of units in the complex or per binding partner. Take “Synechococcus sp. phage S-ShM2 18 kDa small heat shock protein (HspSP-ShM2) (natural protein)”: the decrease of the ability to prevent heat-induced aggregation of CS in the presence of 0.23 mM Triton X-100, at 5:1 and 10:1 HspSP-ShM2:CS (20% and 12%) with citrate synthase [1] is 20%. This substance displayed a percent of heat-induced aggregation of MDH (light scattering at 320 nm, 90 min at 45°C, MDH alone = 100%) at 6:1 and 12:1 HspSP-ShM2:MDH (26.9 and 6.5%) with malate dehydrogenase of 26.9%. The substance also came in with a percent of heat-induced aggregation of Luc (light scattering at 320 nm, 30 min at 42°C, Luc alone = 100%) at 6:1 and 12:1 HspSP-ShM2:Luc (45.8 and 6.4%) in assay [2] of 45.8%. This substance came in with a percent of heat-induced aggregation of CS (light scattering at 320 nm, 90 min at 45°C, CS alone = 100%) at 5:1 and 10:1 HspSP-ShM2:CS (41.6 and 8.17%) with citrate synthase [3] of 41.6%. The substance further returned a stoichiometry N in assay [4] of 12.
